Results reported in the supplement of paper PMC9732359.
± gives the uncertainty stated by the source.

assay: protein stability index of a GFP-peptide fusion (yeast GPS) (PSI 1-4); higher = more stable; sorted into four equal gates, so the index is relative within each strain; conditions: doa10∆
Summary of the method: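 Plasmids isolated from each sorting gate were PCR-amplified and Illumina-sequenced, and barcodes assigned the reads to strains. The gates, four of equal size, were set by GFP/Cherry fluorescence ratio on mid-log cultures in leucine-free medium. These cultures were yeast carrying a pooled library of tiled 17-residue yeast protein peptides fused downstream of GFP on a plasmid that also expresses Cherry. The protein stability index is the sum of every gate's read frequency times its gate number.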

Row | Sequence | protein stability index
1 | KPNDLVGVNKDSYLILD [RPT5] | 3.05 ± 0.17
2 | KPSLVDVHLLESKVYHK [RPN6] | 1.74 ± 0.045
3 | KPTEVNDSENNSSEEDK [ITC1] | 2.82 ± 0.058
4 | KPVMEVTSSFFYRGNYT [FAS1] | 2.21 ± 0.065
5 | KPYSGKLLKVCLTMFED [ECM29] | 2.18 ± 0.056
6 | KQDKTLQKVENQTIKEA [YIL149C/MLP2] | 3.22 ± 0.072
7 | KQGFVIYRVRVRRGNRK [RPL15A] | 1.17 ± 0.13
8 | KQIDIPNFNVEIMQQKF [ECM29] | 2.4 ± 0.25
9 | KQLNSLRRSGQIANDPS [SMD1] | 2.56 ± 0.09
10 | KQNNKDFRTRYIDIRTN [MTW1] | 2.69 ± 0.07
11 | KQNPGLMQNMMNMFGGG [SRP54] | 2.05 ± 0.086
12 | KQRLDLARQVKLLLLNT [YIL149C/MLP2] | 2.56 ± 0.059
13 | KQSGFGGQTKPVFHKKA [RPL42A] | 2.74 ± 0.04
14 | KQVQDFEENDHPNRVLE [COR1] | 3.1 ± 0.074
15 | KREESESAAVYNGRGAR [SNF2] | 3.09 ± 0.17
16 | KRFNIGADPNYRTYSER [RPR2] | 3.08 ± 0.15
17 | KRKKEANEEPNTENVES [ITC1] | 3.1 ± 0.062
18 | KRKVLELKKKRKIKRLE [SRP72] | 3.24 ± 0.077
19 | KRLNGKRKYLDIPIDEM [SSN2] | 3.19 ± 0.13
20 | KRPIESGTSSDPDTKKV [YIL149C/MLP2] | 3.35 ± 0.079
21 | KRVTKVKRLLFTIRGFK [MTW1] | 2.34 ± 0.057
22 | KSCEPVSISTSVKPHVV [SIR4] | 2.6 ± 0.069
23 | KSDSQYRFYEYIYSQET [MED1] | 2.81 ± 0.068
24 | KSHKQTIVTGGGSGNGD [RPP1] | 3.15 ± 0.27
25 | KSKAEELTQVPSARQKY [UBP6] | 2.19 ± 0.14

Row | Sequence | protein stability index
26 | KSKLDQDSTSENVKIIN [RPN2] | 3.39 ± 0.07
27 | KSLDAETEAEEDHMLKK [RPO21] | 3.15 ± 0.29
28 | KSLKNNFYRPLLRSVLV [YML103C/NUP188] | 1.94 ± 0.051
29 | KSMITSEGEQKSAEGNN [YAR002W/NUP60] | 3.2 ± 0.047
30 | KSTPEGTLWAHVLKTVD [SNU114] | 2.1 ± 0.058
31 | KTASLGNSKDDLLDMIQ [ISW2] | 1.62 ± 0.066
32 | KTDTKVSFRTHNSHLSL [SRP21] | 3.03 ± 0.059
33 | KTESQDVETRVQNLEQT [DPB4] | 3.49 ± 0.091
34 | KTHRGLRKVACIGAWHP [RPL3] | 1.41 ± 0.064
35 | KTNIIEKAMDYAISIEN [RPN12] | 3.13 ± 0.18
36 | KTQCPNYDTCGGESAYF [RPC11] | 3.21 ± 0.16
37 | KTQFSWQYYYYTLTEEG [RPS10A] | 2.06 ± 0.065
38 | KTRGPFHFRAPSRIFYK [RPL16A] | 2.99 ± 0.08
39 | KTSCVVEKRIGKIVSQR [RGR1] | 2.76 ± 0.061
40 | KTSLMDLLVIDSHKRIP [SNU114] | 2.43 ± 0.069
41 | KTVCAIALILAIQMVDP [SMC3] | 1.11 ± 0.092
42 | KVDWAREHFEKTVAVDS [RPL3] | 1.8 ± 0.18
43 | KVEKRVLGLTILRGEQI [SMB1] | 1.69 ± 0.078
44 | KVEYKIVHDDPASDDIL [ITC1] | 3.05 ± 0.087
45 | KVIEQPITSETAMKKVE [RPL25] | 3.02 ± 0.092
46 | KVISSDARGVIGVIAGG [RPL2A] | 2.81 ± 0.086
47 | KVLLPSINISCVQLIKC [SWI1] | 1.27 ± 0.064
48 | KVPQQAAGKRISHIEKR [SMC1] | 3.04 ± 0.11
49 | KVSPSMCGVIVKQYNKK [SIN4] | 3 ± 0.19
50 | KVTSTLLEQDTSTEKLY [PRE9] | 2.7 ± 0.056

Row | Sequence | protein stability index
51 | KVVNFWLLHNGFSTGIG [RPO21] | 3.17 ± 0.16
52 | KVVTKKYCEIMGDNSQL [SNF2] | 3.19 ± 0.17
53 | KVWLDPNETSEIAQANS [RPL19A] | 3.16 ± 0.23
54 | KWSKKSMKDRAQHAVIL [RPS25A] | 2.37 ± 0.058
55 | KYHNDLIEKEIQPKITE [SMC1] | 3.11 ± 0.13
56 | KYIALQVIVDIFSVHGN [YCG1] | 1.26 ± 0.081
57 | KYKPTPLYVMDEIDAAL [SMC4] | 2.45 ± 0.085
58 | KYNRYEKRHKNVPVHVS [RPS11A] | 1.61 ± 0.041
59 | KYPIFTGESWVKLTYNS [YDL088C/ASM4] | 1.82 ± 0.049
60 | KYRQTKLSKEERAARVA [RPL5] | 2.7 ± 0.11
61 | KYSKLVDNVTLESYKTQ [SRP72] | 3.54 ± 0.15
62 | LAAPKKLNDSQRKTVNS [POP1] | 3.18 ± 0.075
63 | LAAVPAAGPASAGGAAA [RPP2A] | 2.35 ± 0.085
64 | LAFIPNILALNLVSLLI [YML031W/NDC1] | 1.83 ± 0.073
65 | LAHSQHRCAIRSGALIK [SSN2] | 1.5 ± 0.058
66 | LAHVDQIVDIRNKRAVQ [YJL039C/NUP192] | 2.35 ± 0.13
67 | LAIADSPQKFETNLQTF [ECM29] | 2.96 ± 0.11
68 | LAIIGDENPDLLGYTGI [PRE8] | 1.71 ± 0.06
69 | LALERMVPKRSTIITKA [YCS4] | 1.28 ± 0.1
70 | LANLIRDALRNIKNTNE [RRP6] | 2.37 ± 0.045
71 | LASAIASGLLRAYLSHS [CSN12] | 1.85 ± 0.045
72 | LASIPDIFITPTPVVTI [SSN2] | 1.71 ± 0.054
73 | LCAGANNPKIQTKDSVK [IRR1] | 3.29 ± 0.1
74 | LCLEKLMCLSSKYCEKS [YCS4] | 1.55 ± 0.051
75 | LCVLDYDNIDIQRGRIL [RPB7] | 1.96 ± 0.1

Row | Sequence | protein stability index
76 | LDAKNKVFVPPKSKSLP [RPO31] | 2.71 ± 0.075
77 | LDDDSIVNHEQDLPKIN [SRB4] | 2.7 ± 0.14
78 | LDDITDSNTTEILTSVD [SIR4] | 3.26 ± 0.066
79 | LDDLVVLKKKNIQKKQP [RRP6] | 1.44 ± 0.079
80 | LDEVDAALDITNVQRIA [SMC1] | 3.16 ± 0.096
81 | LDFIGRRGTALGIKKEK [RPB2] | 1.68 ± 0.075
82 | LDISVFLLEKAGERKIP [TAF14] | 2.26 ± 0.078
83 | LDKHERKWMEEKADYER [YIL149C/MLP2] | 2.8 ± 0.094
84 | LDKLDEILYYQIKTLPE [AAR2] | 2.89 ± 0.13
85 | LDLKECYQFAEYLFKPQ [ARP7] | 3.05 ± 0.084
86 | LDLLRPVVRAPTVKYNR [RPL13A] | 1.64 ± 0.13
87 | LDSMIELFKDYKPGSIT [MED1] | 2.15 ± 0.074
88 | LDTQLITLLPSSLKESS [SNF12] | 2.89 ± 0.24
89 | LDVDPAKRIRVSHHATT [RPB2] | 3.02 ± 0.06
90 | LDYVRTPAAATSPIDIR [SNF2] | 2.33 ± 0.056
91 | LEASYSKSYTPRKLVLS [SMC4] | 2.31 ± 0.043
92 | LEEITQYEHLIKGIREY [YDL116W/NUP84] | 2.35 ± 0.22
93 | LEEKLYQMQSNYESVFT [YIL149C/MLP2] | 2.24 ± 0.052
94 | LEELAETFQDTFSGALG [FAS2] | 2.95 ± 0.065
95 | LEFYKDKFFNEVNKSEL [SIR3] | 3.31 ± 0.066
96 | LELGSCFSQENIEEMAR [SIN4] | 2.02 ± 0.06
97 | LELIGVLSINPDMYERK [MED7] | 2.73 ± 0.077
98 | LELLNQLDGFSSDDRVK [RPT5] | 3.07 ± 0.064
99 | LELQVAQAFVELENSSP [RPS7A] | 3.15 ± 0.14

same assay, conditions: pdr5∆

Row | Sequence | protein stability index
100 | KPNDLVGVNKDSYLILD [RPT5] | 3.4 ± 0.19
101 | KPSLVDVHLLESKVYHK [RPN6] | 1.9 ± 0.053
